We go through two substances from PMC7997048.

The target of assay [1] is ephrin-B2 (Homo sapiens) (UniProt P52799). The following applies: cited from earlier work.
The target of assay [2] is ephrin-B2-Fc (extracellular region of murine ephrin-B2, Fc fusion) (murine) (UniProt P52800). Put plainly: BLI; BLItz instrument; Protein-A biosensor loaded with 50 ug/ml purified Fc-tagged ephrin-B2, washed with HBS; EphB6-ECD at 100 nM and 1 uM, association and dissociation 3 min each; apparent Kd.
Assay [3] shares this target. The assay is described as follows: SEC; Superdex 200 FPLC of the EphB6-ECD/ephrin-B2 complex, micromolar concentration range. (In general: Size exclusion chromatography separates by hydrodynamic size, large species first.)

Chain of UniProt P52799 (P52799 28-229): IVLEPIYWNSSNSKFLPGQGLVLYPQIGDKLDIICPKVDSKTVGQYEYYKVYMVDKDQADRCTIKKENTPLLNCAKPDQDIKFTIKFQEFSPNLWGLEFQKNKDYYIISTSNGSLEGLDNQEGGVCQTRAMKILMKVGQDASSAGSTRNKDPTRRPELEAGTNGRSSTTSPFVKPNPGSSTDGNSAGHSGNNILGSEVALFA

As to EphB2 (from UniProt P29323), in assay [1], the Kd was 8.6 nM.
Regarding “EphB6 receptor ectodomain (EphB6-ECD) (from UniProt O15197 32-594) (domain or fragment)”, in assay [2], the Kd was found to be 88.5 nM. Moreover, the stoichiometry N in assay [3] was found to be 1.

The stoichiometry N is a count of units in the complex or per binding partner.
